The results in this text go back to the supplement of paper PMC10567573.

First the molecules themselves.
B1: RHOBTB3 (parent)
chain: KVVEAHKIVLCAVSHVFMLLFNVK
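Also: lentivirally expressed fusions sorted by FACS into six bins by GFP to DsRed ratio, PSI derived from sequencing read proportions per bin multiplied by bin number.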

In this data set the parent is B1. As to the kind of experiment: protein stability index of a GFP-peptide fusion (GPS, HEK-293T) (PSI 1-6); higher = more stable. As to conditions: c terminus: a fixed tail appended.
As to KVVEAHKIVACAVSHVFMLLFNVK, the protein stability index came to 1.75.
With KVVEAHKIVFCAVSHVFMLLFNVK, the protein stability index is 2.66.
Regarding KVVEAHKIVNCAVSHVFMLLFNVK, the protein stability index came out at 3.5.
In the case of KVVEAHKIVPCAVSHVFMLLFNVK, the protein stability index was found to be 1.82.
KVVEAHKIVGCAVSHVFMLLFNVK: the protein stability index stood at 3.06.
Then KVVEAHKIVRCAVSHVFMLLFNVK, with 1.64; and KVVEAHKIVTCAVSHVFMLLFNVK, with 3.3; and KVVEAHKIVYCAVSHVFMLLFNVK, with 3.18.
Then KVVEAHKIVDCAVSHVFMLLFNVK, with 2.5; and KVVEAHKIVSCAVSHVFMLLFNVK, with 3.43; and KVVEAHKIVICAVSHVFMLLFNVK, with 2.64.
With KVVEAHKIVKCAVSHVFMLLFNVK, the protein stability index turned out to be 2.13.
Then KVVEAHKIVVCAVSHVFMLLFNVK, with 3.3; and KVVEAHKKVLCAVSHVFMLLFNVK, with 2.59; and KVVEAHKYVLCAVSHVFMLLFNVK, with 1.88.
On to KVVEAHKAVLCAVSHVFMLLFNVK, for which the protein stability index worked out at 2.45.
With KVVEAHKDVLCAVSHVFMLLFNVK the figure was 2.04.
Regarding KVVEAHKTVLCAVSHVFMLLFNVK, the protein stability index amounted to 2.93.
In the case of KVVEAHKRVLCAVSHVFMLLFNVK, the protein stability index was 2.17.
With KVVEAHKMVLCAVSHVFMLLFNVK the figure was 3.3.
Then KVVEAHKHVLCAVSHVFMLLFNVK, with 2.52; and KVVEAHKPVLCAVSHVFMLLFNVK, with 2.29; and KVVEAHKNVLCAVSHVFMLLFNVK, with 1.89.
For the variant KVVEAHKWVLCAVSHVFMLLFNVK, the protein stability index was determined as 3.31.
With KVVEAHKCVLCAVSHVFMLLFNVK the figure was 2.2; with KVVEAHKVVLCAVSHVFMLLFNVK, 1.68.
For KVVEAHKGVLCAVSHVFMLLFNVK, the protein stability index was 2.84.
Then KVVEAHKEVLCAVSHVFMLLFNVK, with 1.98; and KVVEAHKQVLCAVSHVFMLLFNVK, with 2.41.
As for KVVEAHKFVLCAVSHVFMLLFNVK, the protein stability index worked out at 2.48.
As to KVVEAHKIVLCAKSHVFMLLFNVK, the protein stability index was determined as 3.18.
As to KVVEAHKIVLCAQSHVFMLLFNVK, the protein stability index is 2.9.
With KVVEAHKIVLCAPSHVFMLLFNVK the figure was 2.59; with KVVEAHKIVLCACSHVFMLLFNVK, 3.14; with KVVEAHKIVLCANSHVFMLLFNVK, 2.33.
Then KVVEAHKIVLCAYSHVFMLLFNVK, with 2.62.
Then KVVEAHKIVLCAGSHVFMLLFNVK, with 2.42; and KVVEAHKIVLCAISHVFMLLFNVK, with 2.66.
In the case of KVVEAHKIVLCARSHVFMLLFNVK, the protein stability index worked out at 3.01.
For the variant KVVEAHKIVLCAMSHVFMLLFNVK, the protein stability index turned out to be 4.81.
For KVVEAHKIVLCAHSHVFMLLFNVK, the protein stability index turned out to be 2.36.
Then KVVEAHKIVLCAASHVFMLLFNVK, with 1.41; and KVVEAHKIVLCAWSHVFMLLFNVK, with 1.82.
Take KVVEAHKIVLCAESHVFMLLFNVK: the protein stability index was found to be 2.5.
As for KVVEAHKIVLCATSHVFMLLFNVK, the protein stability index is 4.13.
Then KVVEAHKIVLCASSHVFMLLFNVK, with 2.92.
In the case of KVVEAHKIVLCALSHVFMLLFNVK, the protein stability index amounted to 2.12.
Then KVVEAHKIVLCAVMHVFMLLFNVK, with 3.96.
Take KVVEAHKIVLCAVIHVFMLLFNVK: the protein stability index worked out at 2.88.
With KVVEAHKIVLCAVLHVFMLLFNVK the figure was 2.6; with KVVEAHKIVLCAVDHVFMLLFNVK, 2.17; with KVVEAHKIVLCAVHHVFMLLFNVK, 3.58.
Then KVVEAHKIVLCAVKHVFMLLFNVK, with 2.65.
As to KVVEAHKIVLCAVFHVFMLLFNVK, the protein stability index came to 2.8.
With KVVEAHKIVLCAVGHVFMLLFNVK the figure was 2.17; with KVVEAHKIVLCAVQHVFMLLFNVK, 1.94.
Then KVVEAHKIVLCAVNHVFMLLFNVK, with 3.59.
With KVVEAHKIVLCAVPHVFMLLFNVK the figure was 2.55; with KVVEAHKIVLCAVAHVFMLLFNVK, 2.36.
On to KVVEAHKIYLCAVSHVFMLLFNVK, for which the protein stability index is 1.64.
With KVVEAHKIQLCAVSHVFMLLFNVK, the protein stability index came to 2.73.
Regarding KVVEAHKIHLCAVSHVFMLLFNVK, the protein stability index came out at 2.71.
Take KVVEAHKIRLCAVSHVFMLLFNVK: the protein stability index came to 3.25.
Take KVVEAHKIDLCAVSHVFMLLFNVK: the protein stability index was 2.67.
In the case of KVVEAHKIGLCAVSHVFMLLFNVK, the protein stability index was 2.12.
With KVVEAHKISLCAVSHVFMLLFNVK the figure was 3.31; with KVVEAHKIELCAVSHVFMLLFNVK, 2.79; with KVVEAHKITLCAVSHVFMLLFNVK, 2.47.
As to KVVEAHKIWLCAVSHVFMLLFNVK, the protein stability index is 3.46.
With KVVEAHKIPLCAVSHVFMLLFNVK the figure was 2.36; with KVVEAHKIILCAVSHVFMLLFNVK, 2.87; with KVVEAHKICLCAVSHVFMLLFNVK, 2.32.
Then KVVEAHKIMLCAVSHVFMLLFNVK, with 2.83; and KVVEAHKIFLCAVSHVFMLLFNVK, with 2.7; and KVVEAHKILLCAVSHVFMLLFNVK, with 3.24.
KVVEAHKIKLCAVSHVFMLLFNVK: the protein stability index came out at 3.01.
For the variant KVVEAHKIALCAVSHVFMLLFNVK, the protein stability index came out at 1.87.
Then KVVEAQKIVLCAVSHVFMLLFNVK, with 1.5.
Then KVVEAFKIVLCAVSHVFMLLFNVK, with 2.13.
Then KVVEAMKIVLCAVSHVFMLLFNVK, with 1.63.
In the case of KVVEARKIVLCAVSHVFMLLFNVK, the protein stability index came to 3.29.
Then KVVEAPKIVLCAVSHVFMLLFNVK, with 2.4; and KVVEACKIVLCAVSHVFMLLFNVK, with 2.58.
As to KVVEAKKIVLCAVSHVFMLLFNVK, the protein stability index turned out to be 2.65.
Regarding KVVEANKIVLCAVSHVFMLLFNVK, the protein stability index is 3.4.
Then KVVEASKIVLCAVSHVFMLLFNVK, with 1.92.
Then KVVEAIKIVLCAVSHVFMLLFNVK, with 1.85.
Regarding KVVEAAKIVLCAVSHVFMLLFNVK, the protein stability index was found to be 1.84.
With KVVEAWKIVLCAVSHVFMLLFNVK the figure was 2.24.
Regarding KVVEAVKIVLCAVSHVFMLLFNVK, the protein stability index is 1.77.
Then KVVEALKIVLCAVSHVFMLLFNVK, with 1.75; and KVVEAEKIVLCAVSHVFMLLFNVK, with 2.21.
Consider KVVEAGKIVLCAVSHVFMLLFNVK, for which the protein stability index came out at 1.84.
With KVVEATKIVLCAVSHVFMLLFNVK the figure was 1.79.
